Amyloid nucleation score data for 131 substances are collected here from the supplement of paper PMC12042874.

A short description of this data set: amyloid nucleation score (Sup35N fusion, yeast selection) (log enrichment); library NNK3; higher = more nucleation; inactive = no reads after selection. In short, it runs like this:
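Using DiMSum, nucleation scores were taken as the log enrichment of output over input reads, centred on the mode score of non-aggregating sequences. The input and output reads came from Illumina sequencing of plasmid inserts, with sequences under 100 input reads excluded. The yeast were psi-negative, expressed Sup35N fused to peptides of 20 random codons, were induced with 100 μM copper sulfate for 24 hours, and were grown 7 days at 30°C on medium lacking adenine and uracil.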

± gives the uncertainty stated by the source.

As for RLSLFRGKCRVYYYTGSIQV, the amyloid nucleation score result was “inactive”.
The same measure for FLFRC: “inactive”; for LMIMSKVSKSP: 0.465 ± 0.25.
The figure for CMQSEHTTSAYYRLDCS is -0.276 ± 0.41; for WMYRKTSNRICCLPRESVNP it is “inactive”.
For AKVRLDGSIGEVHFMELVSY, the amyloid nucleation score result was “inactive”.
The same measure for YYALKYVNLQLNKRNVTRWV: “inactive”; for TLNSDVSGSNIWASSYG: “inactive”.
The entry for WNYPFNFQF is “inactive”; for VSTCT it is “inactive”.
The entry for NKVPVGG is “inactive”.
For WDAPKCNSVNYLLKDHYHRC, the amyloid nucleation score result is “inactive”.
The same measure for PSFLNSMGS: “inactive”; for PFLPAANNCVKQRCCFSGAL: “inactive”.
The entry for QGGGVCPCPKMVSFQMMYVI is “inactive”.
The same measure for YDGVNKLRSVCCVESSDFGL: “inactive”; for HNNLLSCYLMAPVFHSMMSE: “inactive”.
MMNVMFD: the amyloid nucleation score is 0.661 ± 0.23.
The same measure for AYNLSLNYDGHSSYWYFHTT: -0.134 ± 0.38; for VSFMFFACDTFFSHAVIRTR: “inactive”; for PERWSMPYIPSDLYKCLLNQ: “inactive”.
The same measure for ASSLVVVCDAMSEASVLNKG: “inactive”.
With IADCVLIN, the amyloid nucleation score entry was “inactive”.
Regarding KQCGTIG, the amyloid nucleation score result was “inactive”.
For WSVGATWVVAFA, the amyloid nucleation score result was “inactive”.
The entry for IYWLSTYRCIKSYSMST is “inactive”; for AVMLREITNIRTKRSRNAMM it is “inactive”.
The entry for YPYCKKGWCDMKTKGRSKEG is “inactive”.
The same measure for YFPSYYVADFSSHLLMGQVY: “inactive”; for CSLNLCVKDTHIHEN: “inactive”; for YMGCMTVW: “inactive”.
For ESFWVML, the amyloid nucleation score entry was “inactive”.
The same measure for YFLFNTYWDRALQSKTVGGL: “inactive”; for DYESCEIRVLETEWIGVGT: “inactive”.
As to AKARMNGEDGARLTSMHSLY, the amyloid nucleation score result was “inactive”.
The same measure for IVKRFHYYMSVRKLMSKFGL: “inactive”.
In the case of MPEKERAKSSPYLSEPRPHD, the amyloid nucleation score result is “inactive”.
On to LLYFSVLRSEL, for which the amyloid nucleation score result is “inactive”.
Regarding CTYIVHATVEPVYDNDLLKW, the amyloid nucleation score result is “inactive”.
As for VNIAETFSRHDPSHLWSYKS, the amyloid nucleation score entry is “inactive”.
The same measure for ASRKVTRVVMHINLRLWYET: “inactive”; for LFSLCWRCTLLKLYCPNWCY: “inactive”; for RCGTLYRGG: “inactive”.
MVLNERFFYTSTTGVICVTC registered an amyloid nucleation score of 1.73 ± 0.064.
Consider LRYVGCTKMSGAMGARS, for which the amyloid nucleation score entry is “inactive”.
The entry for QSGTLLGLLHQANYLGYAF is “inactive”; for YFFSVAISKVYDFSVKSRCT it is 1.98 ± 0.086; for PTEVYEATYCHFTNLL it is “inactive”.
The entry for LCFFVERRLKGYDVGLSNLL is “inactive”; for AFVDAQQVNGLYGWYDSKCD it is “inactive”.
The same measure for CGTCLRMVKVTRSDV: “inactive”; for SVGVGNIHTR: “inactive”; for CPYVKSHSICDDSSGLPRLK: “inactive”.
The substance VITTVTTWGLRAGDVMRRTR showed an amyloid nucleation score of 1.11 ± 0.17.
The figure for NFLVVSNRYLYMVPNGHIKL is 2.96 ± 0.051; for CRLPLQSL it is “inactive”.
Regarding VSVLCMYFVVGPKMVRVSYG, the amyloid nucleation score entry was “inactive”.
The figure for SWLANRYMGDYIRQWVWDKL is -0.932 ± 1.8; for AWMCIHLYICCMILCGRRGW it is “inactive”.
Take VMLCHFDMYF: the amyloid nucleation score was found to be 1.45 ± 0.092.
Turning to LFFYNWVICRSNRYHGL, the amyloid nucleation score entry was “inactive”.
Regarding GYMDAGIDWF, the amyloid nucleation score result was “inactive”.
The same measure for LDEFY: “inactive”.
On to TMHQLHKFFLHMKGASIDSV, for which the amyloid nucleation score entry is “inactive”.
VFGRLFIQMPKLTINQGKFH had an amyloid nucleation score of 1.83 ± 0.089.
The same measure for RMDLEIVLNILHSGMS: “inactive”.
The same measure for FMINSNNRFGISRRTLMSLT: “inactive”; for YSVFAVFILRHGSRILY: “inactive”; for RLNRVGNFIAGHLIGA: “inactive”.
On to ISVVGILLGLSSFPVYSVSW, for which the amyloid nucleation score result is “inactive”.
For VLSRGDMATFTTVMMRRDAH, the amyloid nucleation score entry was “inactive”.
Substance RTAWHMCLFCLNVTNLSWLM returned an amyloid nucleation score of 2.15 ± 0.052.
The same measure for LRRSVSIGDPGASLIKTSFA: “inactive”; for GVSVCVGDVGNLAAFECFRA: “inactive”.
The same measure for VMWEPFAYLFISSWRYVSLK: “inactive”.
VYLYIWQKVSGHHYGFQMDW: the amyloid nucleation score result is “inactive”.
The same measure for YLSVVRGPMNRCSYYKVMTE: “inactive”; for SEYLVMLTGWVTTHLQMLWV: “inactive”.
On to EFYFATRMMF, for which the amyloid nucleation score amounted to 1.09 ± 0.092.
The same measure for FDYWCKVMSHEYYVEEPNIY: “inactive”; for IVCRGYSSKWYSVSEYKDNV: 0.016 ± 0.37.
The same measure for FCWVLCTP: “inactive”.
The same measure for PYSLPSP: “inactive”.
Take VSNCFTSLQT: the amyloid nucleation score entry was “inactive”.
As to SRRNIPVGGLSNWLPVWSVG, the amyloid nucleation score entry was “inactive”.
For the substance GRCRITKSLGGSSQTNGYWV, the amyloid nucleation score entry is “inactive”.
On to LYITMRNVF, for which the amyloid nucleation score result is “inactive”.
The figure for HMGNKRLCYCSSR is -0.326 ± 0.87; for RVCSALCIRVLALFGCCSVE it is 1.05 ± 0.19.
In the case of IDSAEASCIGCLVRQCADPI, the amyloid nucleation score result is “inactive”.
The same measure for ELFMPDSIRT: “inactive”.
As for RDFATTNGRDNIELHSQGNY, the amyloid nucleation score result was “inactive”.
The same measure for IGMTRGMGLVVFYSRYMWDD: “inactive”; for SCGHFIGCWMGTQVRIYGKQ: “inactive”; for IFNGRDNLQLDVWLGGYFLV: “inactive”.
The same measure for YSMQVICISCVLRIDIGDVA: 0.89 ± 0.16.
The same measure for TFVDPGRV: -0.565 ± 1.1; for FVERMVLVLV: “inactive”; for WEILYPEGWFWTFRRSGVGS: “inactive”.
With LLFVVQWWFNRFFE, the amyloid nucleation score entry is “inactive”.
ILMRTGFILCATST: the amyloid nucleation score entry was “inactive”.
The substance FNPCRGCYETKFHVYRLSRL registered an amyloid nucleation score of 0.584 ± 0.28.
The entry for NVLCSVRC is “inactive”; for LAYQGSGLIQQLAGLKHTTV it is “inactive”; for VCLHDRLGVHVGQIRLGYRC it is “inactive”.
For LCEKYFLRRFYFMTTGLSGR, the amyloid nucleation score entry was “inactive”.
With YGFRVCYPQASMSTVVEHSR, the amyloid nucleation score entry is “inactive”.
Regarding GTNWCGIFLNFLLFVML, the amyloid nucleation score entry is “inactive”.
For the substance MIVVHEFLKGYVFSYRLYNL, the amyloid nucleation score entry was “inactive”.
The same measure for DYYGLK: “inactive”; for YLQLTRQTSYVIIAL: “inactive”; for SICGKSSCMCVTNVSPLDSQ: 0.304 ± 0.21.
Turning to SEVTSRNHTGYSRSRLLGMY, the amyloid nucleation score entry was “inactive”.
For GNYSREVRKNVYPETGVRQM, the amyloid nucleation score result was “inactive”.
Regarding ADWYWFMAMQRNNLL, the amyloid nucleation score result is “inactive”.
RYCNAWLAGKSIFAPFVGTM: the amyloid nucleation score entry was “inactive”.
The same measure for VGSYVGRAVVEGYNCRVDTG: “inactive”.
Consider HGRLLYVSYISDMINASYGQ, for which the amyloid nucleation score entry was “inactive”.
With FNFFQCFRQNASTIFSSGML, the amyloid nucleation score entry was “inactive”.
Turning to LVDLLHTMYSCYLGYKSFRG, the amyloid nucleation score entry is “inactive”.
As for DMMYVIRIFFLATEYSSLHP, the amyloid nucleation score result is “inactive”.
The same measure for NVLCSFYLMYGLTSAWSVS: “inactive”; for ASFLVYGP: “inactive”.
With IAARW, the amyloid nucleation score entry was “inactive”.
For AHKIVFELTYTVLS, the amyloid nucleation score result was “inactive”.
The same measure for FGYYTWTAYER: “inactive”; for SKYPRLSCHRIRNVRLGWTL: 1.34 ± 0.085; for RCGYHFHQVAFFTKDVKVVE: “inactive”.
As to FYVLNMNDLTSGLDMHVKS, the amyloid nucleation score result is “inactive”.
The entry for FVLQFSSGCYFGPD is “inactive”.
The entry for DDCQFSDNRRFKSVPSYSQR is “inactive”.
